In paper PMC4552549:

Target: TβRII (TGF-β1 receptor) on PBMC (human (endogenous in PBMC)) (UniProt P37173)
Sequence of UniProt P37173 (P37173 23-567): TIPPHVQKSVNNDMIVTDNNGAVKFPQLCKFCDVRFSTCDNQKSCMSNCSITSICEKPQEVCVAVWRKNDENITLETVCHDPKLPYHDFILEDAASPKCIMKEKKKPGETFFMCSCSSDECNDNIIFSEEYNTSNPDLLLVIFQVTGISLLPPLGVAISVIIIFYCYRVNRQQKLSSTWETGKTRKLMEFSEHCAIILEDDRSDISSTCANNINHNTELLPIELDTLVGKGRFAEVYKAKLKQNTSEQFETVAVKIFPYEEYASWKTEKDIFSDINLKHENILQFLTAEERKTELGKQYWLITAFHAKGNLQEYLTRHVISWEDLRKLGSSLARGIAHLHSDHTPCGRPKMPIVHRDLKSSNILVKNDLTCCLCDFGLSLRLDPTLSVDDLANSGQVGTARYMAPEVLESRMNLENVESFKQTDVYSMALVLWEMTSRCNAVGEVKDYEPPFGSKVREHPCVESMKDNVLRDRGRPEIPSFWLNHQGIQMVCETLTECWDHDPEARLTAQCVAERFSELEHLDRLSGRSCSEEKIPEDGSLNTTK

## ACESPLKRQCGGGS [pm26TGF-β1 synthetic peptide]
  percentage of Tregs (CD4+CD25+Foxp3+, flow cytometry) in PBMC after the peptide at 1 μM, 10 μM and 100 μM (5.43%, 6.67% and 5.90%; untreated 4.94%): 6.67%
